From IntAct's records for PubMed 21984795 come the findings set out here.

B1: Biopolymer transport protein ExbD (Escherichia coli (strain K12)), P0ABV2 (parent)
chain: MAMHLNENLDDNGEMHDINVTPFIDVMLVLLIIFMVAAPLATVDVKVNLPASTSTPQPRPEKPVYLSVKADNSMFIGNDPVTDETMITALNALTEGKKDTTIFFRADKTVDYETLMKVMDTLHQAGYLKIGLVGEETAKAK
partner: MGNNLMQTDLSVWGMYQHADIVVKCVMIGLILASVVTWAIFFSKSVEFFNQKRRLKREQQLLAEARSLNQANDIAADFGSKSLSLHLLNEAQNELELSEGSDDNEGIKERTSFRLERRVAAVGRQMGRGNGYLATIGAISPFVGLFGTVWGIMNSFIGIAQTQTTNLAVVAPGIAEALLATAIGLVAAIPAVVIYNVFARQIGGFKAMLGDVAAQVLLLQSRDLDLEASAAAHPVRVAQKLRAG
B2: Biopolymer transport protein ExbD (Escherichia coli (strain K12)), P0ABV2 (parent)
chain: B1 chain

Variants of B1 are the subject of the first experiment. As to conditions: with exbb_ecoli exbB.
As to MAMHLNENLDDNGEMHDINVTPFIDVMLVLLIIFMVAAPLATVDVKVNLPASTSTPQPRPEKPVYLSVKADNSMFIGNDPVTDETMITALNALTEGKKDTTIFFRADKTVDCETLMKVMDTLHQAGYLKIGLVGEETAKAK [Y112C], the “effect of a mutation on the interaction” value was “increasing interaction”.
Same read-out and setting: in the case of MAMHLNENLDDNGEMHDINVTPFIDVMLVLLIIFMVAAPLATVDVKVNLPASTSTPQPRPEKPVYLSVKADNSMFIGNDPVTDETMITALNALTEGKKDTTIFFRADCTVDYETLMKVMDTLHQAGYLKIGLVGEETAKAK [K108C] it was “increasing interaction”; in that of MAMHLNENLDDNGEMHDINVTPFIDVMLVLLIIFMVAAPLATVDVKVNLPASTSTPQPRPEKPVYLSVKADNSMFIGNDPVTDETMITALNALTEGKKDTTIFFRADKTVDYETLCKVMDTLHQAGYLKIGLVGEETAKAK [M116C], “increasing interaction”; in that of MAMHLNENLDDNGEMHDINVTPFIDVMLVLLIIFMVAAPLATVDVKVNLPASTSTPQPRPEKPVYLSVKADNSMFIGNDPVTDETMITALNALTEGKKDTTIFFRADKTVDYCTLMKVMDTLHQAGYLKIGLVGEETAKAK [E113C], “increasing interaction”.
The same measure, in the same setting: the same measure for MAMHLNENLDDNGEMHDINVTPFINVMLVLLIIFMVAAPLATVDVKVNLPASTSTPQPRPEKPVYLSVKADNSMFIGNDPVTDETMITALNALTEGKKDTTIFFRADKTVDYETLMKVMDTLHQAGYLKIGLVGEETAKAK [D25N]: “disrupting interaction”.

Another experiment covers variants of B2. The following applies: with tonb_ecoli tonB.
On to MAMHLNENLDDNGEMHDINVTPFIDVMLVLLIIFMVAAPLATVDVKVNLPASTSTPQPRPEKPVYLSVKADNSMFIGNDPVTDETMITALNALTEGKKDTTIFFRADKTVCYETLMKVMDTLHQAGYLKIGLVGEETAKAK [D111C], for which the “effect of a mutation on the interaction” value is “increasing interaction”.
Still for that read-out and setting: in the case of MAMHLNENLDDNGEMHDINVTPFIDVMLVLLIIFMVAAPLATVDVKVNLPASTSTPQPRPEKPVYLSVKADNSMFIGNDPVTDETMITALNALTEGKKDTTIFFRADKTVDYETLMKVMCTLHQAGYLKIGLVGEETAKAK [D120C] it was “increasing interaction”; in that of MAMHLNENLDDNGEMHDINVTPFIDVMLVLLIIFMVAAPLATVDVKVNLPASTSTPQPRPEKPVYLSVKADNSMFIGNDPVTDETMITALNALTEGKKDTTIFFRADKTVDYETLCKVMDTLHQAGYLKIGLVGEETAKAK [M116C], “increasing interaction”.
Still for that read-out and setting: the same measure for MAMHLNENLDDNGEMHDINVTPFIDVMLVLLIIFMVAAPLATVDVKVNLPASTSTPQPRPEKPVYLSVKADNSMFIGNDPVTDETMITALNALTEGKKDTTIFFRADCTVDYETLMKVMDTLHQAGYLKIGLVGEETAKAK [K108C]: “increasing interaction”.
The same measure, in the same setting: the same measure for MAMHLNENLDDNGEMHDINVTPFIDVMLVLLIIFMVAAPLATVDVKVNLPASTSTPQPRPEKPVYLSVKADNSMFIGNDPVTDETMITALNALTEGKKDTTIFFRACKTVDYETLMKVMDTLHQAGYLKIGLVGEETAKAK [D107C]: “increasing interaction”; for MAMHLNENLDDNGEMHDINVTPFIDVMLVLLIIFMVAAPLATVDVKVNLPASTSTPQPRPEKPVYLSVKADNSMFIGNDPVTDETMITALNALTEGKKDTTCFFRADKTVDYETLMKVMDTLHQAGYLKIGLVGEETAKAK [I102C]: “increasing interaction”; for MAMHLNENLDDNGEMHDINVTPFIDVMLVLLIIFMVAAPLATVDVKVNLPASTSTPQPRPEKPVYLSVKADNSMFIGNDPVTDETMITALNALTEGKKDTTIFFRADKTVDCETLMKVMDTLHQAGYLKIGLVGEETAKAK [Y112C]: “increasing interaction”.
Consider MAMHLNENLDDNGEMHDINVTPFIDVMLVLLIIFMVAAPLATVDVKVNLPASTSTPQPRPEKPVYLSVKADNSMFIGNDPVTDETMITALNALTEGKKDTTIFFRADKTCDYETLMKVMDTLHQAGYLKIGLVGEETAKAK [V110C], for which the “effect of a mutation on the interaction” value is “increasing interaction”.
The same measure, in the same setting: the same measure for MAMHLNENLDDNGEMHDINVTPFIDVMLVLLIIFMVAAPLATVDVKVNLPASTSTPQPRPEKPVYLSVKADNSMFIGNDPVTDETMITALNALTECKKDTTIFFRADKTVDYETLMKVMDTLHQAGYLKIGLVGEETAKAK [G96C]: “increasing interaction”; for MAMHLNENLDDNGEMHDINVTPFIDVMLVLLIIFMVAAPLATVDVKVNLPASTSTPQPRPEKPVYLSVKADNSMFIGNDPVTDETMITALNCLTEGKKDTTIFFRADKTVDYETLMKVMDTLHQAGYLKIGLVGEETAKAK [A92C]: “increasing interaction”; for MAMHLNENLDDNGEMHDINVTPFIDVMLVLLIIFMVAAPLATVDVKVNLPASTSTPQPRPEKPVYLSVKADNSMFIGNDPVTDETMITALNALTEGKKDTTIFFRADKCVDYETLMKVMDTLHQAGYLKIGLVGEETAKAK [T109C]: “increasing interaction”.
On the same count and under the same terms, the same measure for MAMHLNENLDDNGEMHDINVTPFIDVMLVLLIIFMVAAPLATVDVKVNLPASTSTPQPRPEKPVYLSVKADNSMFIGNDPVTDETMITALNALTEGKKDTTIFFRADKTVDYCTLMKVMDTLHQAGYLKIGLVGEETAKAK [E113C]: “increasing interaction”.
